Experimental findings from PMC11574045, “A cofactor-induced repressive type of transcription factor condensation can be induced by synthetic peptides to suppress tumorigenesis” (The EMBO Journal, 2024) are described below.

The test system of this assay is HEK293FT cells transfected with TF library. Kind of assay: Screening of TF condensates based on fluorescent puncta. The settings on record: Figure 1B numerical data; TF library screen, one value per transcriptional factor. Format: cell-based. An outline of the steps: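 HEK293FT, PEI transfection of TF library, 60 h; ±glucose 12 h; 4% PFA fix, 0.05% Triton X-100 permeabilization, 5% BSA block; anti-Flag/anti-GAL4 overnight at 4 °C, Alexa 488 secondary 1 h; high-content imaging, 50 fields/well.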

B1: FOXD4L1 (protein, UniProt Q9NU39 1-408, looked up)
Forkhead box protein D4-like 1: MNLPRAERPRSTPQRSLRDSDGEDGKIDVLGEEEDEDEVEDEEEEASQKFLEQSLQPGLQVARWGGVALPREHIEGGGPSDPSEFGTEFRAPPRSAAASEDARQPAKPPYSYIALITMAILQSPHKRLTLSGICAFISGRFPYYRRKFPAWQNSIRHNLSLNDCFVKIPREPGHPGKGTYWSLDPASQDMFDNGSFLRRRKRFKRHQLTPGAHLPHPFPLPAAHAALHNPRPGPLLGAPALPQPVPGAYPNTAPGRRPYALLHPHPPRYLLLSAPAYAGAPKKAEGADLATPGTLPVLQPSLGPQPWEEGKGLASPPGGGCISFSIESIMQGVRGAGTGAAQSLSPTAWSYCPLLQRPSSLSDNFAATAAASGGGLRQRLRSHQGRGAGRAPVGRVGAAAVSGGGRGL
With B1, the “Z score of condensed fraction” value is listed as -0.9826.

B2: FOSL1 (protein, UniProt P15407 1-271, looked up)
Fos-related antigen 1: MFRDFGEPGPSSGNGGGYGGPAQPPAAAQAAQQKFHLVPSINTMSGSQELQWMVQPHFLGPSSYPRPLTYPQYSPPQPRPGVIRALGPPPGVRRRPCEQISPEEEERRRVRRERNKLAAAKCRNRRKELTDFLQAETDKLEDEKSGLQREIEELQKQKERLELVLEAHRPICKIPEGAKEGDTGSTSGTSSPPAPCRPVPCISLSPGPVLEPEALHTPTLMTTPSLTPFTPSLVFTYPSTPEPCASAHRKSSSSSGDPSSDPLGSPTLLAL
B2: the “Z score of condensed fraction” value is -0.3444.

B3: FOXD4L4 (protein, UniProt Q8WXT5 1-416, looked up)
Forkhead box protein D4-like 4: MNLPRAERPRSTPQRSLRDSDGEDGKIDVLGEEEDEDEVEDEEEEARQQFLEQSLQPGLQVARWGGVALPREHIEGGGGPSDPSEFGTKFRAPPRSAAASEDARQPAKPPYSYIALITMAILQNPHKRLTLSGICAFISGRFPYYRRKFPAWQNSIRHNLSLNDCFVKIPREPGHPGKGNYWSLDPASQDMFDNGSFLRRRKRFKRHQLTPGAHLPHPFPLPAAHAALHNPHPGPLLGAPAPPQPVPGAYPNTAPGRRPYALLHPHPLRYLLLSARVYAGAPKKAEGADLATPAPFPCCSPHLVLSLGRRARVWRRHREADASLSALRVLCKGSGERVQGLRRVCPRPRGATATCSSDHQACCIPKPLPLCCKCPPPLLLGQFCSNSSSIRRTAPTAALPPRARCWAGTCRPRRRC
As to B3, the “Z score of condensed fraction” value is reported as 0.1205.

B4: FOXD4L5 (protein, UniProt Q5VV16 1-416, looked up)
Forkhead box protein D4-like 5: MNLPRAERPRSTPQRSLRDSDGEDGKIDVLGEEEDEDEVEDEEEEARQQFLEQSLQPGLQVARWGGVALPREHIEGGGGPSDPSEFGTKFRAPPRSAAASEDARQPAKPPYSYIALITMAILQNPHKRLTLSGICAFISGRFPYYRRKFPAWQNSIRHNLSLNDCFVKIPREPGHPGKGNYWSLDPASQDMFDNGSFLRRRKRFKRHQLTPGAHLPHPFPLPAAHAALHNPHPGPLLGAPAPPQPVPGAYPNTAPGRCPYALLHPHPLRYLLLSAPVYAGAPKKAEGADLATPAPFPCCSPHLVLSLGRRARVWRRHREADASLSALRVLCKGSGERVQGLRRVCPRPRGATATCSSDHQACCIPKPLPLCCKCPPPLLLGQFCSNSSSIRRTAPTAALPPRARCWAGTCRPRRRC
Turning to B4, the “Z score of condensed fraction” value was -0.7466.

B5: FOXF2 (protein, UniProt O54743 1-446, looked up)
Forkhead box protein F2: MSTEGGPPPPPPRPPPAPLRRACSPAPGALQAALMSPPPAATLESTSSSSSSSSASCASSSSNSVSASAGACKSAASSGGAGAGSGGTKKATSGLRRPEKPPYSYIALIVMAIQSSPSKRLTLSEIYQFLQARFPFFRGAYQGWKNSVRHNLSLNECFIKLPKGLGRPGKGHYWTIDPASEFMFEEGSFRRRPRGFRRKCQALKPMYHRVVSGLGFGASLLPQGFDFQAPPSAPLGCHGQGGYGGLDMMPAGYDTGAGAPGHAHPHHLHHHHVPHMSPNPGSTYMASCPVPAGPAGVGAAAGGGGGGGDYGPDSSSSPVPSSPAMASAIECHSPYTSPAAHWSSPGASPYLKQPPALTPSSNPAASAGLHPSMSSYSLEQSYLHQNAREDLSVGLPRYQHHSTPVCDRKDFVLNFNGISSFHPSASGSYYHHHHQSVCQDIKPCVM
For the molecule B5, the “Z score of condensed fraction” value was 0.2019.

B6: FLI1 (protein, UniProt Q01543 1-452, looked up)
Friend leukemia integration 1 …: MDGTIKEALSVVSDDQSLFDSAYGAAAHLPKADMTASGSPDYGQPHKINPLPPQQEWINQPVRVNVKREYDHMNGSRESPVDCSVSKCSKLVGGGESNPMNYNSYMDEKNGPPPPNMTTNERRVIVPADPTLWTQEHVRQWLEWAIKEYSLMEIDTSFFQNMDGKELCKMNKEDFLRATTLYNTEVLLSHLSYLRESSLLAYNTTSHTDQSSRLSVKEDPSYDSVRRGAWGNNMNSGLNKSPPLGGAQTISKNTEQRPQPDPYQILGPTSSRLANPGSGQIQLWQFLLELLSDSANASCITWEGTNGEFKMTDPDEVARRWGERKSKPNMNYDKLSRALRYYYDKNIMTKVHGKRYAYKFDFHGIAQALQPHPTESSMYKYPSDISYMPSYHAHQQKVNFVPPHPSSMPVTSSSFFGAASQYWTSPTGGIYPNPNVPRHPNTHVPSHLGSYY
On to B6, for which the “Z score of condensed fraction” value was found to be 0.3939.

B7: FOXE3 (protein, UniProt Q13461 1-319, looked up)
Forkhead box protein E3: MAGRSDMDPPAAFSGFPALPAVAPSGPPPSPLAGAEPGREPEEAAAGRGEAAPTPAPGPGRRRRRPLQRGKPPYSYIALIAMALAHAPGRRLTLAAIYRFITERFAFYRDSPRKWQNSIRHNLTLNDCFVKVPREPGNPGKGNYWTLDPAAADMFDNGSFLRRRKRFKRAELPAHAAAAPGPPLPFPYAPYAPAPGPALLVPPPSAGPGPSPPARLFSVDSLVNLQPELAGLGAPEPPCCAAPDAAAAAFPPCAAAASPPLYSQVPDRLVLPATRPGPGPLPAEPLLALAGPAAALGPLSPGEAYLRQPGFASGLERYL
With B7, the “Z score of condensed fraction” value is -0.8488.

B8: FOXB2 (protein, UniProt Q5VYV0 1-432, looked up)
Forkhead box protein B2: MPRPGKSSYSDQKPPYSYISLTAMAIQHSAEKMLPLSDIYKFIMERFPYYREHTQRWQNSLRHNLSFNDCFIKIPRRPDQPGKGSFWALHPDCGDMFENGSFLRRRKRFKVLRADHTHLHAGSTKSAPGAGPGGHLHPHHHHHPHHHHHHHAAAHHHHHHHPPQPPPPPPPPPPHMVHYFHQQPPTAPQPPPHLPSQPPQQPPQQSQPQQPSHPGKMQEAAAVAAAAAAAAAAAVGSVGRLSQFPPYGLGSAAAAAAAAAASTSGFKHPFAIENIIGRDYKGVLQAGGLPLASVMHHLGYPVPGQLGNVVSSVWPHVGVMDSVAAAAAAAAAAGVPVGPEYGAFGVPVKSLCHSASQSLPAMPVPIKPTPALPPVSALQPGLTVPAASQQPPAPSTVCSAAAASPVASLLEPTAPTSAESKGGSLHSVLVHS
For the molecule B8, the “Z score of condensed fraction” value is given as -0.2645.

B9: FOXA3 (protein, UniProt P55318 1-350, looked up)
Hepatocyte nuclear factor …: MLGSVKMEAHDLAEWSYYPEAGEVYSPVTPVPTMAPLNSYMTLNPLSSPYPPGGLPASPLPSGPLAPPAPAAPLGPTFPGLGVSGGSSSSGYGAPGPGLVHGKEMPKGYRRPLAHAKPPYSYISLITMAIQQAPGKMLTLSEIYQWIMDLFPYYRENQQRWQNSIRHSLSFNDCFVKVARSPDKPGKGSYWALHPSSGNMFENGCYLRRQKRFKLEEKVKKGGSGAATTTRNGTGSAASTTTPAATVTSPPQPPPPAPEPEAQGGEDVGALDCGSPASSTPYFTGLELPGELKLDAPYNFNHPFSINNLMSEQTPAPPKLDVGFGGYGAEGGEPGVYYQGLYSRSLLNAS
As to B9, the “Z score of condensed fraction” value came out at 0.4813.

B10: FOSB (protein, UniProt P53539 1-338, looked up)
Protein FosB: MFQAFPGDYDSGSRCSSSPSAESQYLSSVDSFGSPPTAAASQECAGLGEMPGSFVPTVTAITTSQDLQWLVQPTLISSMAQSQGQPLASQPPVVDPYDMPGTSYSTPGMSGYSSGGASGSGGPSTSGTTSGPGPARPARARPRRPREETLTPEEEEKRRVRRERNKLAAAKCRNRRRELTDRLQAETDQLEEEKAELESEIAELQKEKERLEFVLVAHKPGCKIPYEEGPGPGPLAEVRDLPGSAPAKEDGFSWLLPPPPPPPLPFQTSQDAPPNLTASLFTHSEVQVLGDPFPVVNPSYTSSFVLTCPEVSAFAGAQRTSGSDQPSDPLNSPSLLAL
B10: the “Z score of condensed fraction” value turned out to be 1.202.

B11: FOXA1 (protein, UniProt P55317 1-472, looked up)
Hepatocyte nuclear factor …: MLGTVKMEGHETSDWNSYYADTQEAYSSVPVSNMNSGLGSMNSMNTYMTMNTMTTSGNMTPASFNMSYANPGLGAGLSPGAVAGMPGGSAGAMNSMTAAGVTAMGTALSPSGMGAMGAQQAASMNGLGPYAAAMNPCMSPMAYAPSNLGRSRAGGGGDAKTFKRSYPHAKPPYSYISLITMAIQQAPSKMLTLSEIYQWIMDLFPYYRQNQQRWQNSIRHSLSFNDCFVKVARSPDKPGKGSYWTLHPDSGNMFENGCYLRRQKRFKCEKQPGAGGGGGSGSGGSGAKGGPESRKDPSGASNPSADSPLHRGVHGKTGQLEGAPAPGPAASPQTLDHSGATATGGASELKTPASSTAPPISSGPGALASVPASHPAHGLAPHESQLHLKGDPHYSFNHPFSINNLMSSSEQQHKLDFKAYEQALQYSPYGSTLPASLPLGSASVTTRSPIEPSALEPAYYQGVYSRPVLNTS
Regarding B11, the “Z score of condensed fraction” value is reported as -0.3489.

B12: FHL2 (protein, UniProt Q14192 1-279, looked up)
Four and a half LIM domains …: MTERFDCHHCNESLFGKKYILREESPYCVVCFETLFANTCEECGKPIGCDCKDLSYKDRHWHEACFHCSQCRNSLVDKPFAAKEDQLLCTDCYSNEYSSKCQECKKTIMPGTRKMEYKGSSWHETCFICHRCQQPIGTKSFIPKDNQNFCVPCYEKQHAMQCVQCKKPITTGGVTYREQPWHKECFVCTACRKQLSGQRFTARDDFAYCLNCFCDLYAKKCAGCTNPISGLGGTKYISFEERQWHNDCFNCKKCSLSLVGRGFLTERDDILCPDCGKDI
Regarding B12, the “Z score of condensed fraction” value was determined as 0.8678.

B13: FOSL2 (protein, UniProt P15408 1-326, looked up)
Fos-related antigen 2: MYQDYPGNFDTSSRGSSGSPAHAESYSSGGGGQQKFRVDMPGSGSAFIPTINAITTSQDLQWMVQPTVITSMSNPYPRSHPYSPLPGLASVPGHMALPRPGVIKTIGTTVGRRRRDEQLSPEEEEKRRIRRERNKLAAAKCRNRRRELTEKLQAETEELEEEKSGLQKEIAELQKEKEKLEFMLVAHGPVCKISPEERRSPPAPGLQPMRSGGGSVGAVVVKQEPLEEDSPSSSSAGLDKAQRSVIKPISIAGGFYGEEPLHTPIVVTSTPAVTPGTSNLVFTYPSVLEQESPASPSESCSKAHRRSSSSGDQSSDSLNSPTLLAL
Turning to B13, the “Z score of condensed fraction” value was -0.8108.
